{"source": "paper PMC3664939", "about": "“Structure of the Catalytic Region of DNA Ligase IV in Complex with an Artemis Fragment Sheds Light on Double-Strand Break Repair” (Structure(London, England:1993), 2013)", "binders": {"B1": {"name": "Artemis peptide (residues 485–495) (peptide, UniProt Q96SD1 485-495, looked up)", "peptide": "DVPQWEVFFKR", "notes": "holds P487, W489, F492 and F493; also called Artemis fragment; source: synthetic peptide (PNAC facility, Department of Biochemistry, University of Cambridge)"}}, "target": "T1, DNA ligase IV catalytic region (residues 1–609) (human, UniProt P49917 1-609)", "T1 construct": "Cloned in pOPINS; whether the His6-Sumo tag was removed is told only in the Supplemental Experimental Procedures; the derivative crystals carry nine mercury atoms from thiomersal; the methods point to the recombinant construct for the crystals; also called catalytic region of LigIV", "T1 sequence (looked up)": "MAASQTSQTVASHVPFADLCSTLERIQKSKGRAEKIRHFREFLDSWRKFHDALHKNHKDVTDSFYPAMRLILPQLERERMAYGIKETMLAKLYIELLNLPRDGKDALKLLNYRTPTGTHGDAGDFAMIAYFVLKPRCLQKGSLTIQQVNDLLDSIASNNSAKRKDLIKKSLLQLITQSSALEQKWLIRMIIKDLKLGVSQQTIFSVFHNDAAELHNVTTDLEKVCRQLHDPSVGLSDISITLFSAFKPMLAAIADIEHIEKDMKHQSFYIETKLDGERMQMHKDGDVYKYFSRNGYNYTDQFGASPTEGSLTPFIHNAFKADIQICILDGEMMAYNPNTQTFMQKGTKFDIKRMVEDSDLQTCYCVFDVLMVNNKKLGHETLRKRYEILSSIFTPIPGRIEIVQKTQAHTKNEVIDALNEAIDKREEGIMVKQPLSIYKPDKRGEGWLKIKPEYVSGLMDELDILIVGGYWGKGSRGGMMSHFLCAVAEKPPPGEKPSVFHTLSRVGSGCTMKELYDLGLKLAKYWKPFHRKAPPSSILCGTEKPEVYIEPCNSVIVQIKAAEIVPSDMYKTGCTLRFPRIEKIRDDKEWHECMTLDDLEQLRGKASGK", "assay": "crystal structure; vapor diffusion, 100 mM MES (pH 5.6–5.7), 2.0 M (NH4)2SO4, 10 mM YCl3; native crystals and crystals soaked in 1 mM thiomersal", "conditions": "both partners purified"}
{"binder": "B1", "values": [{"measurement": "binding result", "result": "binds"}]}
